Test results as given in US20220110936A1, “PHARMACEUTICAL COMPOSITION FOR TREATMENT OF NEURODEGENERATIVE DISEASES OR DISEASES CAUSED BY ABNORMALITY OF RNA BINDING PROTEIN AND APPLICATIONS THEREOF” (Shanghai Institute of Organic Chemistry, Chinese Academy of …, priority 2019, published 2022).

Tested on: hnRNP A1
Assay: Immunoprecipitation/WB of hnRNP A1-Flag from HeLa cells with PARG added to the IP system
Format: biochemical, human
Method: The steps of HeLa cell culture and plasmid transfection are as described in Example 1. To increase the level of PARylation in HeLa cells after transfection with the plasmids described in 3.1.1, the cell culture medium was removed before collection, 500 μM hydrogen peroxide (diluted in PBS) was added to the cells followed by incubating for 10 min at 37° C. The stimulated HeLa cells can be used for subsequent experiments.
Cells treated according to 3.1.2 were lysed with the following lysis buffer: 25 mM Tris-HCl pH 7.4, 150 mM NaCl, 1% NP-40, 1 mM EDTA, 5% glycerol, protease inhibitor (Roche), 20 μM Olaparib (Selleck) and 8 μM ADP-HPD (Millopore). For enrichment of TDP-43 with HA tag, the lysate was added with HA antibody (Mouse anti-HA (Proteintech)) for overnight incubation at 4° C. followed by enrichment of primary antibody-sample complexes with Dynabeads® Protein G beads (Novex) for 2 hours at room temperature; for Flag-tagged hnRNP Al, the lysate was added directly to anti-FLAG® M2 Affinity Gel (Sigma) followed by incubation at 4° C. To ablate the polyribose moiety in vitro, 1μ purified PARG protein (Sigma) was added to a mixture of anti-FLAG® M2 Affinity Gel (Sigma) and cell lysate, and incubated for 1 h at 37° C. After incubation, the product was washed 3-5 times with lysis buffer, and added with 4×LDS sample buffer (Invitrogen) and boiled at 95° C. for subsequent studies. […]

B1: PARG protein: purified PARG protein (Sigma), poly(ADP-ribose) glycohydrolase (protein, UniProt Q86W56 1-976, looked up)
Poly(ADP-ribose) …: MNAGPGCEPCTKRPRWGAATTSPAASDARSFPSRQRRVLDPKDAHVQFRVPPSSPACVPGRAGQHRGSATSLVFKQKTITSWMDTKGIKTAESESLDSKENNNTRIESMMSSVQKDNFYQHNVEKLENVSQLSLDKSPTEKSTQYLNQHQTAAMCKWQNEGKHTEQLLESEPQTVTLVPEQFSNANIDRSPQNDDHSDTDSEENRDNQQFLTTVKLANAKQTTEDEQAREAKSHQKCSKSCDPGEDCASCQQDEIDVVPESPLSDVGSEDVGTGPKNDNKLTRQESCLGNSPPFEKESEPESPMDVDNSKNSCQDSEADEETSPGFDEQEDGSSSQTANKPSRFQARDADIEFRKRYSTKGGEVRLHFQFEGGESRTGMNDLNAKLPGNISSLNVECRNSKQHGKKDSKITDHFMRLPKAEDRRKEQWETKHQRTERKIPKYVPPHLSPDKKWLGTPIEEMRRMPRCGIRLPLLRPSANHTVTIRVDLLRAGEVPKPFPTHYKDLWDNKHVKMPCSEQNLYPVEDENGERTAGSRWELIQTALLNKFTRPQNLKDAILKYNVAYSKKWDFTALIDFWDKVLEEAEAQHLYQSILPDMVKIALCLPNICTQPIPLLKQKMNHSITMSQEQIASLLANAFFCTFPRRNAKMKSEYSSYPDINFNRLFEGRSSRKPEKLKTLFCYFRRVTEKKPTGLVTFTRQSLEDFPEWERCEKPLTRLHVTYEGTIEENGQGMLQVDFANRFVGGGVTSAGLVQEEIRFLINPELIISRLFTEVLDHNECLIITGTEQYSEYTGYAETYRWSRSHEDGSERDDWQRRCTEIVAIDALHFRRYLDQFVPEKMRRELNKAYCGFLRPGVSSENLSAVATGNWGCGAFGGDARLKALIQILAAAAAERDVVYFTFGDSELMRDIYSMHIFLTERKLTVGDVYKLLLRYYNEECRNCSTPGPDIKLYPFIYHAVESCAETADHSGQRTGT
amount of endogenous TDP-43 protein co-precipitated with hnRNP A1 (added to the IP system): significantly reduced | PARylation level of hnRNP A1 itself and PARylated proteins that interact with it (hydrogen peroxide-stimulated HeLa, added to the IP system for 1 h): significantly reduced
